Experimental data: the supplement of paper PMC5998384

Assays:
[1] = tested on: HeLa Kyoto; assay: thermal stability score vs G1/S (z-score of summed log2 fold changes over temperatures); higher = more thermally stable than in G1/S
[2] = tested on: HeLa Kyoto; assay: melting temperature (median over replicates), in situ; higher = more thermally stable
[3] = cell cycle stage: early G1 (4.5 h after nocodazole release)
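For melting temperature (median over replicates), in situ in this document: HeLa Kyoto cells synchronized by double thymidine or nocodazole block, proteins quantified by TMT10plex mass spectrometry, three independent biological replicates.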
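For thermal stability score vs G1/S (z-score of summed log2 fold changes over temperatures) in this document: synchronized HeLa Kyoto cells, proteins quantified by TMT10plex mass spectrometry, three biological replicates, mitosis taken 0.5 h after nocodazole release, G1/S directly after double thymidine block.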

MSRB2, sequence (chain, as listed by the source): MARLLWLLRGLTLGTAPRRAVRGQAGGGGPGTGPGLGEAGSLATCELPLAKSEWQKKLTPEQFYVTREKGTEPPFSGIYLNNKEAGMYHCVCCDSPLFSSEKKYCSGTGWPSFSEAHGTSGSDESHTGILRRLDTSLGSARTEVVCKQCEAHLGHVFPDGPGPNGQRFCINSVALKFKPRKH
GORASP1, sequence (chain, as listed by the source): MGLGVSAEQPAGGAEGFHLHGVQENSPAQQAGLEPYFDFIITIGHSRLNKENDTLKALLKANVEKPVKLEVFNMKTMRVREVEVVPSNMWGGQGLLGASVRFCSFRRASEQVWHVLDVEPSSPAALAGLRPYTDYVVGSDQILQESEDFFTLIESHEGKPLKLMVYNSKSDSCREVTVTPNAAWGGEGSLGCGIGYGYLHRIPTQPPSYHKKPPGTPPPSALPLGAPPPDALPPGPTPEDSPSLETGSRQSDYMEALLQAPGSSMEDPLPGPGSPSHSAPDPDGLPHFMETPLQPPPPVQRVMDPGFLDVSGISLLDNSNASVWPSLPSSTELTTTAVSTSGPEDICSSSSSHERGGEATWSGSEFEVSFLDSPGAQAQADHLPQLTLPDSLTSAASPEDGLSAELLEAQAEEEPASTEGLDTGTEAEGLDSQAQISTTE

Substance	thermal stability score [1, 3]	thermal stability score ([1]; cell cycle stage: mitosis)	melting temperature ([2]; cell cycle stage: G1/S) [°C]	melting temperature ([2]; cell cycle stage: mitosis) [°C]
DENND4B	-0.499	-0.617		
GORASP1	0.552	0.301		
MAAAEEGCSVGAEADRELEELLESALDDFDKAKPSPAPPSTTTAPDASGPQKRSPGDTAKDALFASQEKFFQELFDSELASQATAEFEKAMKELAEEEPHLVEQFQKLSEAAGRVGSDMTSQQEFTSCLKETLSGLAKNATDLQNSSMSEEELTKAMEGLGMDEGDGEGNILPIMQSIMQNLLSKDVLYPSLKEITEKYPEWLQSHRESLPPEQFEKYQEQHSVMCKICEQFEAETPTDSETTQKARFEMVLDLMQQLQDLGHPPKELAGEMPPGLNFDLDALNLSGPPGASGEQCLIM [G3V3G9|DCAF8]	0.212	-1		
MAGVSACIKYSMFTFNFLFWLCGILILALAIWVRVSNDSQAIFGSEDVGSSSYVAVDILIAVGAIIMILGFLGCCGAIKESRCMLLLFFIGLLLILLLQVATGILGAVFKSKSDRIVNETLYENTKLLSATGESEKQFQEAIIVFQEEFKCCGLVNGAADWGNNFQHYPELCACLDKQRPCQSYNGKQVYKETCISFIKDFLAKNLIIVIGISFGLAVIEILGLVFSMVLYCQIGNK [TSPAN8]	1.86	-1.57		
MALSRVCWARSAVWGSAVTPGHFVTRRLQLGRSGLAWGAPRSSKLHLSPKADVKNLMSYVVTKTKAINGKYHRFLGRHFPRFYVLYTIFMKGLQMLWADAKKARRIKTNMWKHNIKFHQLPYREMEHLRQFRQDVTKCLFLGIISIPPFANYLVFLLMYLFPRQLLIRHFWTPKQQTDFLDIYHAFRKQSHPEIISYLEKVIPLISDAGLRWRLTDLCTKIQRGTHPAIHDILALRECFSNHPLGMNQLQALHVKALSRAMLLTSYLPPPLLRHRLKTHTTVIHQLDKALAKLGIGQLTAQEVKSACYLRGLNSTHIGEDRCRTWLGEWLQISCSLKEAELSLLLHNVVLLSTNYLGTRR [LETMD1]	-0.886	-0.884		
MAQRAVWLISHEPGTPLCGTVRFSRRYPTVEKRARVFNGASYVPVPEDGPFLKALLFELRLLDDDKDFVESRDSCSRINKTSIYGLLIGGEELWPVVAFLKNDMIYACVPLVEQTLSPRPPLISVSGVSQGFEFLFGIQDFLYSGQKNDSELNTKLSQLPDLLLQACPFGTLLDANLQNSLDNTNFASVTQPQKQPAWKTGTYKGKPQVSISITEKVKSMQYDKQGIADTWQVVGTVTCKCDLEGIMPNVTISLSLPTNGSPLQDILVHPCVTSLDSAILTSSSIDAMDDSAFSGPYKFPFTPPLESFNLCFYTSQVPVPPILGFYQMKEEEVQLRITINLKLHESVKNNFEFCEAHIPFYNRGPITHLEYKTSFGQLEVFREKSLLIWIIGQKFPKSMEISLSGTVTFGAKSHEKQPFDPICTGETAYLKLHFRILDYTLTGCYADQHSVQVFASGKPKISAHRKLISSDYYIWNSKAPAPVTYGSLLL [AP5M1]	2.33e-19	-1.74e-18		
MEERERGARSAGAGSPARPPSPRLDVSSDSFDPLLALYAPRLPPIPYPNAPCFNNVAEYESFLRTGVRGGGRGRGRARGAAAGSGVPAAPGPSGRTRRRPDAPAPDPERIQRLRRLMVAKEEGDGAAGAGRRGPGRSRKAPRNVLTRMPLHEGSPLGELHRCIREGVKVNVHIRTFKGLRGVCTGFLVAFDKFWNMALTDVDETYRKPVLGKAYERDSSLTLTRLFDRLKLQDSSKKEADSKSAVEDSTLSRYSQTSTWKLASVWGRADTGRGSHKRSRSVPSSLQASAREESRSELSGRTTRTDGSSVGGTFSRATTLSRGQSRKKKRKPKVDYQQVFTRHINQIFIRGENVLLVHLAQ [LSM11]	0.976	0.837		
MGKNKLLHPSLVLLLLVLLPTDASVSGKPQYMVLVPSLLHTETTEKGCVLLSYLNETVTVSASLESVRGNRSLFTDLEAENDVLHCVAFAVPKSSSNEEVMFLTVQVKGPTQEFKKRTTVMVKNEDSLVFVQTDKSIYKPGQTVKFRVVSMDENFHPLNELIPLVYIQDPKGNRIAQWQSFQLEGGLKQFSFPLSSEPFQGSYKVVVQKKSGGRTEHPFTVEEFVLPKFEVQVTVPKIITILEEEMNVSVCGLYTYGKPVPGHVTVSICRKYSDASDCHGEDSQAFCEKFSGQLNSHGCFYQQVKTKVFQLKRKEYEMKLHTEAQIQEEGTVVELTGRQSSEITRTITKLSFVKVDSHFRQGIPFFGQVRLVDGKGVPIPNKVIFIRGNEANYYSNATTDEHGLVQFSINTTNVMGTSLTVRVNYKDRSPCYGYQWVSEEHEEAHHTAYLVFSPSKSFVHLEPMSHELPCGHTQTVQAHYILNGGTLLGLKKLSFYYLIMAKGGIVRTGTHGLLVKQEDMKGHFSISIPVKSDIAPVARLLIYAVLPTGDVIGDSAKYDVENCLANKVDLSFSPSQSLPASHAHLRVTAAPQSVCALRAVDQSVLLMKPDAELSASSVYNLLPEKDLTGFPGPLNDQDNEDCINRHNVYINGITYTPVSSTNEKDMYSFLEDMGLKAFTNSKIRKPKMCPQLQQYEMHGPEGLRVGFYESDVMGRGHARLVHVEEPHTETVRKYFPETWIWDLVVVNSAGVAEVGVTVPDTITEWKAGAFCLSEDAGLGISSTASLRAFQPFFVELTMPYSVIRGEAFTLKATVLNYLPKCIRVSVQLEASPAFLAVPVEKEQAPHCICANGRQTVSWAVTPKSLGNVNFTVSAEALESQELCGTEVPSVPEHGRKDTVIKPLLVEPEGLEKETTFNSLLCPSGGEVSEELSLKLPPNVVEESARASVSVLGDILGSAMQNTQNLLQMPYGCGEQNMVLFAPNIYVLDYLNETQQLTPEIKSKAIGYLNTGYQRQLNYKHYDGSYSTFGERYGRNQGNTWLTAFVLKTFAQARAYIFIDEAHITQALIWLSQRQKDNGCFRSSGSLLNNAIKGGVEDEVTLSAYITIALLEIPLTVTHPVVRNALFCLESAWKTAQEGDHGSHVYTKALLAYAFALAGNQDKRKEVLKSLNEEAVKKDNSVHWERPQKPKAPVGHFYEPQAPSAEVEMTSYVLLAYLTAQPAPTSEDLTSATNIVKWITKQQNAQGGFSSTQDTVVALHALSKYGAATFTRTGKAAQVTIQSSGTFSSKFQVDNNNRLLLQQVSLPELPGEYSMKVTGEGCVYLQTSLKYNILPEKEEFPFALGVQTLPQTCDEPKAHTSFQISLSVSYTGSRSASNMAIVDVKMVSGFIPLKPTVKMLERSNHVSRTEVSSNHVLIYLDKVSNQTLSLFFTVLQDVPVRDLKPAIVKVYDYYETDEFAIAEYNAPCSKDLGNA [A2M]	-2.38	-0.965		
MGNPENIEDAYVAVIRPKNTASLNSREYRAKSYEILLHEVPIEGQKKKRKKVLLETKLQGNSEITQGILDYVVETTKPISPANQGIRGKRVVLMKKFPLDGEKMGREASLFIVPSVVKDNTKYTYTPGCPIFYCLQDIMRVCSESSTHFATLTARMLIALDKWLDERHAQSHFIPALFRPSPLERIKTNVINPAYATESGQTENSLHMGYSALEIKSKMLALEKADTCIYNPLFGSDLQYTNRVDKVVINPYFGLGAPDYSKIQIPKQEKWQRSMSSVTEDKERQWVDDFPLHRSACEGDSELLSRLLSERFSVNQLDSDHWAPIHYACWYGKVEATRILLEKGKCNPNLLNGQLSSPLHFAAGGGHAEIVQILLNHPETDRHITDQQGRSPLNICEENKQNNWEEAAKLLKEAINKPYEKVRIYRMDGSYRSVELKHGNNTTVQQIMEGMRLSQETQQYFTIWICSENLSLQLKPYHKPLQHVRDWPEILAELTNLDPQRETPQLFLRRDVRLPLEVEKQIEDPLAILILFDEARYNLLKGFYTAPDAKLITLASLLLQIVYGNYESKKHKQGFLNEENLKSIVPVTKLKSKAPHWTNRILHEYKNLSTSEGVSKEMHHLQRMFLQNCWEIPTYGAAFFTGQIFTKASPSNHKVIPVYVGVNIKGLHLLNMETKALLISLKYGCFMWQLGDTDTCFQIHSMENKMSFIVHTKQAGLVVKLLMKLNGQLMPTERNS [KRIT1]	-0.252	0.0145		
MGQCGITSSKTVLVFLNLIFWGAAGILCYVGAYVFITYDDYDHFFEDVYTLIPAVVIIAVGALLFIIGLIGCCATIRESRCGLATFVIILLLVFVTEVVVVVLGYVYRAKVENEVDRSIQKVYKTYNGTNPDAASRAIDYVQRQLHCCGIHNYSDWENTDWFKETKNQSVPLSCCRETASNCNGSLAHPSDLYAEGCEALVVKKLQEIMMHVIWAALAFAAIQLLGMLCACIVLCRRSRDPAYELLITGGTYA [TSPAN3]	-0.556	-0.785		
MKAIIHLTLLALLSVNTATNQGNSADAVTTTETATSGPTVAAADTTETNFPETASTTANTPSFPTATSPAPPIISTHSSSTIPTPAPPIISTHSSSTIPIPTAADSESTTNVNSLATSDIITASSPNDGLITMVPSETQSNNEMSPTTEDNQSSGPPTGTALLETSTLNSTGPSNPCQDDPCADNSLCVKLHNTSFCLCLEGYYYNSSTCKKGKVFPGKISVTVSETFDPEEKHSMAYQDLHSEITSLFKDVFGTSVYGQTVILTVSTSLSPRSEMRADDKFVNVTIVTILAETTSDNEKTVTEKINKAIRSSSSNFLNYDLTLRCDYYGCNQTADDCLNGLACDCKSDLQRPNPQSPFCVASSLKCPDACNAQHKQCLIKKSGGAPECACVPGYQEDANGNCQKCAFGYSGLDCKDKFQLILTIVGTIAGIVILSMIIALIVTARSNNKTKHIEEENLIDEDFQNLKLRSTGFTNLGAEGSVFPKVRITASRDSQMQNPYSRHSSMPRPDY [MUC13]	-3.46	-1.12		
MKLPIFIADAFTARAFRGNPAAVCLLENELDEDMHQKIAREMNLSETAFIRKLHPTDNFAQSSCFGLRWFTPASEVPLCGHATLASAAVLFHKIKNMNSTLTFVTLSGELRARRAEDGIVLDLPLYPAHPQDFHEVEDLIKTAIGNTLVQDICYSPDTQKLLVRLSDVYNRSFLENLKVNTENLLQVENTGKVKGLILTLKGEPGGQTQAFDFYSRYFAPWVGVAEDPVTGSAHAVLSSYWSQHLGKKEMHAFQCSHRGGELGISLRPDGRVDIRGGAAVVLEGTLTA [PBLD]	-0.159	0.989		
MRWRTILLQYCFLLITCLLTALEAVPIDIDKTKVQNIHPVESAKIEPPDTGLYYDEYLKQVIDVLETDKHFREKLQKADIEEIKSGRLSKELDLVSHHVRTKLDELKRQEVGRLRMLIKAKLDSLQDIGMDHQALLKQFDHLNHLNPDKFESTDLDMLIKAATSDLEHYDKTRHEEFKKYEMMKEHERREYLKTLNEEKRKEEESKFEEMKKKHENHPKVNHPGSKDQLKEVWEETDGLDPNDFDPKTFFKLHDVNSDGFLDEQELEALFTKELEKVYDPKNEEDDMVEMEEERLRMREHVMNEVDTNKDRLVTLEEFLKATEKKEFLEPDSWETLDQQQFFTEEELKEYENIIALQENELKKKADELQKQKEELQRQHDQLEAQKLEYHQVIQQMEQKKLQQGIPPSGPAGELKFEPHI [NUCB2]			55.5	56.9
MSKRNQVSYVRPAEPAFLARFKERVGYREGPTVETKRIQPQPPDEDGDHSDKEDEQPQVVVLKKGDLSVEEVMKIKAEIKAAKADEEPTPADGRIIYRKPVKHPSDEKYSGLTASSKKKKPNEDEVNQDSVKKNSQKQIKNSSLLSFDNEDENE [KIAA1143]				52
MSRB2			52.4	52.6
MWSRLVWLGLRAPLGGRQGFTSKADPQGSGRITAAVIEHLERLALVDFGSREAVARLEKAIAFADRLRAVDTDGVEPMESVLEDRCLYLRSDNVVEGNCADELLQNSHRVVEEYFVAPPGNISLPKLDEQEPFPHS [GATC]			51.7	
